Source: publication PMC2885798

Experiments:
[1] = molecular target: nesprin-1α fragment SLR2-7 (full-length nesprin-1α minus the transmembrane domain) (human); assay: dynamic light scattering
[2] = molecular target: nesprin-1α fragment SLR2-7ΔAD (SLR2-7 with the adaptive domain deleted) (human); assay: dynamic light scattering

| stoichiometry N [1] | stoichiometry N [2] | Substance |
| --- | --- | --- |
| 2 |  | nesprin-1α fragment SLR2-7 (full-length nesprin-1α minus the transmembrane domain) (domain or fragment) |
|  | 2 | nesprin-1α fragment SLR2-7ΔAD (SLR2-7 with the adaptive domain deleted) (domain or fragment) |
